Test results: patent US20230061604A1 (HIFIBIO HK, published 2023)

T1: human OX40 protein expressed on the surface of cells (human, UniProt P43489 29-277)
T1 sequence (looked up): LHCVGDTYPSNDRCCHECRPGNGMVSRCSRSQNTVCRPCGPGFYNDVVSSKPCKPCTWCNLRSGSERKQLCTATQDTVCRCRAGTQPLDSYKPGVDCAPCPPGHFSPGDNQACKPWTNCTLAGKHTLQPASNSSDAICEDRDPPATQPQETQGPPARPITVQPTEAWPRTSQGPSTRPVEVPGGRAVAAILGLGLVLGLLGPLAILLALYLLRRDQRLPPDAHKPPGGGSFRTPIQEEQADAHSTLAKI

T2: biotinylated OX40 recombinant protein (UniProt P43489 29-216, limits assumed, biotinylated (site not stated))
T2 construct: also called Biotin-OX40
T2 sequence (looked up): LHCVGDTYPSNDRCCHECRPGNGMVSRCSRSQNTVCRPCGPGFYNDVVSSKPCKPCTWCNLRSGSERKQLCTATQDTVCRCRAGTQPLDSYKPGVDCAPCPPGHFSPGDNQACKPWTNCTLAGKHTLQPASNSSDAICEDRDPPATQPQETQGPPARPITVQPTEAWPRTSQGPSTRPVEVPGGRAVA


Legend:
[1] = target: T1, human OX40 protein expressed on the …; test: cell-based or functional assay
[2] = target: T2, biotinylated OX40 recombinant protein; test: ELISA: OX40L coated, biotinylated OX40 titrated (x axis is its concentration in nM), OD 450nm

Row | EC50 (MFI of GFP), NF-kb GFP Jurkat reporter cells, cross-linked with anti-human IgG [1] [nM] | EC50 of IL-2 secretion, primary CD4+ T cells pre-activated with anti-CD3 and anti-CD28, cross-linked [1] [nM] | EC50 (MFI of GFP), NF-kb GFP Jurkat reporter cells, without cross-linking [1] [nM] | EC50 (read off the curve) [2] [nM] | Binder
1 | 2.9 | 0.2 | – | – | anti-OX40 antibody HFB10-1E1hG1 (antibody, human IgG1, kappa, V domains shown) VH: not shown VL: DIQMTQSPSSVSASVGDRVTITCRASQGISSWLAWYQQKPGKAPKLLIYAASSLQSGVPSRFSGSGSGTDFTLTISSLQPEDFATYYCQQANSFPLTFGGGTKLEIKR
2 | – | – | 45 | ~0.5 | OX40L (trimeric OX40L recombinant protein) (ligand, UniProt P23510 51-183, looked up, Bought recombinant protein; also called OX40 ligand) QVSHRYPRIQSIKVQFTEYKKEKGFILTSQKEDEIMKVQNNSVIINCDGFYLISLKGYFSQEVNISLHYQKDEEPLFQLKKVRSVNSLMVASLTYKDKVYLNVTTDNTSLDDFHVNGGELILIHQNPGEFCVL
